Source: patent US20070099283A1 (published 2007)

Target: T1, mature recombinant proteinase K from Tritirachium album Limber (processed, natured from pro-proteinase K) (Tritirachium album Limber, UniProt P06873 106-384)
T1 construct: Made in E. coli as pro-proteinase K inclusion bodies, natured in vitro and cleaved autocatalytically; also called processed recombinant proteinase K; native proteinase K
Assay: chromatographic methods and SDS-PAGE of natured pro-proteinase K

T1 sequence (P06873 106-384): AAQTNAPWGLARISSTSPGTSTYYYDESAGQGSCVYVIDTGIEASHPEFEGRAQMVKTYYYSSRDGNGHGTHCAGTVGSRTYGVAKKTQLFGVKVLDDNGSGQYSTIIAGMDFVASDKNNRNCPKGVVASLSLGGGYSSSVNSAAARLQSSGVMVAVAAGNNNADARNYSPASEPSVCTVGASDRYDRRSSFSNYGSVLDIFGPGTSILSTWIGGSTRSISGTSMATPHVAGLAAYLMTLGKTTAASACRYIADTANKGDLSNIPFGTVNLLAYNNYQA

B1: propeptide (prosequence) of proteinase K from Tritirachium album Limber (peptide)
chain: APAVEQRSEAAPLIEARGEMVANKYIVKFKEGSALSALDAAMEKISGKPDHVYKNVFSGFAATLDENMVRVLRAHPDVEYIEQDAVVTIN
binding result: binds
